Experimental data taken from US20220306734A1 (H LUNDBECK A S, published 2022).
Read-outs that look alike come from different tables or passages of the source. Values belong to the binder of their own block, whether it stands above or below them.

Assays:
[1] = target: full-length (FL) human mGluR5 on BA/F3-mGluR5 clone 10C9 cells (human) (UniProt P41594); test: cell-based or functional assay
[2] = target: human mGluR5 extracellular domain (human-mGluR5-ECD) (human) (UniProt P41594); test: HTRF, soluble ECD
Sequence of human mGluR5 extracellular domain (human-mGluR5-ECD) (human) (P41594 other isoform, or with tags, fused parts or gaps): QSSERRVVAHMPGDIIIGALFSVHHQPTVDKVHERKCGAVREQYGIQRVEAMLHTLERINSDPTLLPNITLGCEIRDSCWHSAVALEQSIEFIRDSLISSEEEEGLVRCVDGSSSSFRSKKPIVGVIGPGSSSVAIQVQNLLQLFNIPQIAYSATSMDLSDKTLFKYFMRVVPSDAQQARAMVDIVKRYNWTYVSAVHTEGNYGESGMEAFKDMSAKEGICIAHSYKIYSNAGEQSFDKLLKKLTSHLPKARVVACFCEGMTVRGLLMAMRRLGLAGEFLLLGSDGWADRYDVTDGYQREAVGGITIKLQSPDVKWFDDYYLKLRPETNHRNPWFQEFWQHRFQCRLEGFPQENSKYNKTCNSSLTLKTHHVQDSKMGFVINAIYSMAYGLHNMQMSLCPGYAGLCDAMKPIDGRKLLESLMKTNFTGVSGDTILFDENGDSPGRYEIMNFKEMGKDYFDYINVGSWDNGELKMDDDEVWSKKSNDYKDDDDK

[3] = target: full-length (FL) human mGluR5 on BA/F3-mGluR5 clone 10C9 cells (human) (UniProt P41594); test: flow cytometry, BA/F3-mGluR5 10C9 cells, 10 ug/ml antibody
[4] = target: T1, rat mGluR5 extracellular domain (rat-mGluR5-ECD) (rat, UniProt P31424 21-504); test: HTRF, soluble ECD
T1 construct: ECD construct made 'in a similar fashion' to the human one
T1 sequence (P31424 other isoform, or with tags, fused parts or gaps limits assumed, form in doubt): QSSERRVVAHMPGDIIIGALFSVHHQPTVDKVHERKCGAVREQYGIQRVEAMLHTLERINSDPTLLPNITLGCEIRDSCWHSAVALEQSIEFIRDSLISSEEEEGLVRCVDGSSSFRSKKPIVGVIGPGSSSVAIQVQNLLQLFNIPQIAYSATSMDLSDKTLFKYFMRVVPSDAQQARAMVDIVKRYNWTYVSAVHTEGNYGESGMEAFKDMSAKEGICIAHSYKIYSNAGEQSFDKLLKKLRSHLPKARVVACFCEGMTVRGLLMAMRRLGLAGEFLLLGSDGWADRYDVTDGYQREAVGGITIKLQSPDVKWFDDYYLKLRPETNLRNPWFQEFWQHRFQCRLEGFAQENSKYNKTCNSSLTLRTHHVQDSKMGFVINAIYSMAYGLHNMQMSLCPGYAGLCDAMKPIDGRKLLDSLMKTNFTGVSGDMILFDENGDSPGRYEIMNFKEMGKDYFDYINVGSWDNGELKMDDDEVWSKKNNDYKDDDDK
Method: (§1) Binding of antibodies to mGluR5/mGluRJ measured via Homogeneous Time-Resolved Fluorescence (HTRF). Binding assays were performed using HTRF reagents from CisBio. Ten microliters of an antibody dilution series (highest final concentration of 30 nM) was incubated with 10 μl of mGluR-ECD (10 nM final concentration) in HTRF buffer (50 mM Phosphate buffer pH7, 0.8M KF (potassium fluoride), 0.2% BSA). Twenty microliters of Europium-labeled anti-hu-Fc donor (2 nM final concentration, CisBio Catalog No. 61HFCKLB) and 20 μl of XL665-labeled anti-Flag acceptor (60 nM final concentration, CisBio Catalog No. 61FG2XLB) were added to each well and incubated for 1 hour at room temperature. Alternatively, the antibody dilution series was incubated with 10 μl of biotinylated mGluR-ECD (10 nM final concentration), and 20 μl of Europium-labeled anti-hu-Fc donor (2 nM final concentration) and 20 μl of d2-labeled streptavidin acceptor (60 nM final concentration, CisBio Catalog No. 610SADLB) were added to each well. Fluorescence was measured at 620 and 665 nm with a delay of 300 μsec. Results were expressed as the ratio of signal at 665 nm over 620 nm. EC₅₀ values were calculated for binding of Ab1-Ab23 to human-mGluR5-ECD, of Ab1-Ab21 to rat-mGluR5-ECD, and of Ab1, Ab2 and Ab4-Ab12 to monkey-mGluR5-ECD and to human-mGluR1-ECD (TABLE 1).

[5] = target: T2, cynomolgus monkey mGluR5 extracellular domain (monkey-mGluR5-ECD) (cynomolgus monkey, UniProt P41594 21-580 (human entry), limits assumed); test: HTRF, soluble ECD
T2 construct: ECD construct made 'in a similar fashion' to the human one; also called cyno-mGluR5
T2 sequence (P41594 other isoform, or with tags, fused parts or gaps limits assumed): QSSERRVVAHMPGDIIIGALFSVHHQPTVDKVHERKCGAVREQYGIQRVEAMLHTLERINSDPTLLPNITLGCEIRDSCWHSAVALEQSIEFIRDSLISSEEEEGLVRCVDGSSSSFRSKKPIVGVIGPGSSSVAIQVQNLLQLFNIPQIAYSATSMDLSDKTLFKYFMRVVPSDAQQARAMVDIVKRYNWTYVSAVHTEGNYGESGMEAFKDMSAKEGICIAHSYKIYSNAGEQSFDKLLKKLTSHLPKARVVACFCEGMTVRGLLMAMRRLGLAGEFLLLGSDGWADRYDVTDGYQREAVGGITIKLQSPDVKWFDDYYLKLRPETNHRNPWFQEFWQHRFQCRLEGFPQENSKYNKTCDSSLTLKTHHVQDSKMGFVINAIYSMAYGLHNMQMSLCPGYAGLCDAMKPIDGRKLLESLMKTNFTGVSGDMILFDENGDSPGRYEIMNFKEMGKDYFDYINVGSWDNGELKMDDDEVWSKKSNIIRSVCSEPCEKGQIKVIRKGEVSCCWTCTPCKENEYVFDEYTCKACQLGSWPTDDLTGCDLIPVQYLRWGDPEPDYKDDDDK
Method: as §1

[6] = target: T3, human mGluR1 extracellular domain (human-mGluR1-ECD) (human, UniProt Q13255 19-592, limits assumed); test: HTRF, soluble ECD
T3 construct: ECD construct made 'in a similar fashion' to the human mGluR5 one; also called hu-mGluR1
T3 sequence (Q13255 other isoform, or with tags, fused parts or gaps limits assumed): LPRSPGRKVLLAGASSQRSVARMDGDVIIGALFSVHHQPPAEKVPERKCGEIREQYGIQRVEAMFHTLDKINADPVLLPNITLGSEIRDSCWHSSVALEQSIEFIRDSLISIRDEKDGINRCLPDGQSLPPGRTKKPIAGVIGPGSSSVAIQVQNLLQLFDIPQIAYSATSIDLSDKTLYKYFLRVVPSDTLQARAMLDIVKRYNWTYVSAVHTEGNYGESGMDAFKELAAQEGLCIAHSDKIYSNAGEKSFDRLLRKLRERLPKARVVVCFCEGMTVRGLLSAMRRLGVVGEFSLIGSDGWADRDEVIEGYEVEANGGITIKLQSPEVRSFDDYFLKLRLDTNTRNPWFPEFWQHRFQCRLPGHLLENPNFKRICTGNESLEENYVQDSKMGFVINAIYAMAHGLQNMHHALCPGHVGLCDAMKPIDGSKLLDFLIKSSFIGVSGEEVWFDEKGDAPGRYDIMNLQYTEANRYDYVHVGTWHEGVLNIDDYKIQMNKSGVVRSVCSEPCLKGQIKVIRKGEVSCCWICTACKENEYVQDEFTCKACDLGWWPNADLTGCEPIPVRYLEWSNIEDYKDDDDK
Method: as §1

[7] = target: human mGluR5 extracellular domain (human-mGluR5-ECD) (human) (UniProt P41594); test: HTRF, soluble ECD; remark: listed apart in the source

pERK Assay Inhibition IC50-nM [1]: 0.14 nM
EC50 [2]: 0.545 nM
mGluR5 (FL) cell binding-fold over background [3]: 37 fold
EC50 [4]: 0.423 nM
EC50 [5]: 0.255 nM
binding result [6]: no binding
EC50 [7]: < 2 nM
B1: mGluR5 Ab11 (antibody, V domains shown)
VH: QSLEESGGGLVKPGGTLTLTCTASGFSFSSSYWICWVRQAPGKGLEWIGCIYGSTDAYNANWAKGRFAISQTSSTTVTLQMTSLPAADTATYFCARHDGDIGWTLDLWGPGTLVTVSS
VL: AYDMTQTPASVEVAVGGTVTIKCQASLTIGTRLAWYQQKPGQPPKLLIYKASTLASGVSSRFKGSGSGTQFALTISDLECADAATYYCQQAAYVTDIDNAFGGGTEVVVKR
notes: Rabbit variable regions on human heavy and light chain constant regions (chimeric)

pERK Assay Inhibition IC50-nM [1]: 4.29 nM
EC50 [2]: 0.415 nM
mGluR5 (FL) cell binding-fold over background [3]: 24.4 fold
EC50 [4]: 0.771 nM
EC50 [5]: 0.424 nM
binding result [6]: no binding
EC50 [7]: < 2 nM
B2: mGluR5 Ab6 (antibody, V domains shown)
VH: QSLEESGGRLVTPGGTLTLTCTVSGIDLSSYAMSWVRQAPGKGLEWIGIIYASGNTWYANWVKGRFTISKTSTTVDLKMTSPTTEDTATYFCARDSSATFNYLDLWGQGTLVTVSS
VL: AFHMTQTPASMEVAVGGTVTMKCQASESIDTYLNWYQQKPGQPPKLLIYQASKLASGVPSRFKGSGSGTEFTLTISGVECADAATYYCQQGWSTNDVDNVFGGGTEVVVKR
notes: as for B1

Further lines, the binder ahead of its results:

B3: mGluR5 Ab2 (antibody, V domains shown)
VH: QQQLEESGGGLVKPGGTLTLTCKASGIDFSGYYYMCWVRQAPGKGLEWIACVYTGDGGTYYASWAKGRFTISKTSSTTVTLQMTSLTAADTATYFCARGSGVGSYGYNLWGQGTLVTVSS
VL: DIVMTQTPASVEAAVGGTVTIKCQASESIYSNLAWYQQKPGQPPKLLIYRASNLESGVPSRFKGSGSGTEFTLTISDLECADAATYYCQGYYAITTTNAFGGGTEVVVKR
notes: as for B1
pERK Assay Inhibition IC50-nM [1]: 0.16 nM
EC50 [2]: 0.341 nM
mGluR5 (FL) cell binding-fold over background [3]: 40.3 fold
EC50 [4]: 0.476 nM
EC50 [5]: 0.36 nM
binding result [6]: no binding
EC50 [7]: < 2 nM

B4: mGluR5 Ab10 (antibody, V domains shown)
VH: QSLEESGGRLVTPGTPLTLTCTVSGIDLSSYAVGWVRQAPGKGLEYIGIIYASGNTWYASWVKGRFTISKTSTTVDLKMTSLTTEDTATYFCARGHGATYDYFNLWGPGTLVTVSS
VL: AYDMTQTPASVEVAVGGTVTIKCQASQSISSWLAWYQQKPGQPPKLLIYDASDLASGVPSRFKGSGSGTEYTLTISGVQCDDAATYYCQQGLATANVDNVFGGGTEVVVKR
notes: as for B1
pERK Assay Inhibition IC50-nM [1]: 1.07 nM
EC50 [2]: 0.409 nM
mGluR5 (FL) cell binding-fold over background [3]: 27.9 fold
EC50 [4]: 0.848 nM
EC50 [5]: 0.339 nM
binding result [6]: no binding
EC50 [7]: < 2 nM

B5: mGluR5 Ab12 (antibody, V domains shown)
VH: QSVEESGGRLVTPGTPLTLTCTVSGIDLSSNAMGWVRQAPGKGLEWIGIIYASGNAWYANWVKGRFTISKTSTTVDLKITSPTTEDTATYFCARDATATWDYFNLWGQGTLVTVSS
VL: AYDMTQTPSSVSAAVGGTVTIKCQASQSISNWLSWYQQKPGQPPKLLIYRASTLASGVSSRFSGSGSGTEFTLTISDLECADAATYYCQQGYSVANVDNAFGGGTEVVVKR
notes: as for B1
pERK Assay Inhibition IC50-nM [1]: 3.73 nM
EC50 [2]: 0.775 nM
mGluR5 (FL) cell binding-fold over background [3]: 31.9 fold
EC50 [4]: 0.991 nM
EC50 [5]: 0.359 nM
binding result [6]: no binding
EC50 [7]: < 2 nM

B6: mGluR5 Ab5 (antibody, V domains shown)
VH: QEQLVESGGGLVQPEGSLTLTCTASGIDFSSGYFMCWVRQAPGKGLEWIACISPYSDNTWYANWAKGRFTISKTSSTTVTLQMTSLTAADTAAYRCARTMAIGAYNPFKLWGQGTLVTVSS
VL: ALVMTQTPSSVSAAVGGTVTINCQASQNIYSNLAWYQQKPGQRPKLLIYDASDLASGVSSRVKGSGSGTEFTLTISDLECADAATYYCQGYYSGNAFGGGTEVVVKR
notes: as for B1
pERK Assay Inhibition IC50-nM [1]: 1.51 nM
EC50 [2]: 0.54 nM
mGluR5 (FL) cell binding-fold over background [3]: 36.3 fold
EC50 [4]: 0.311 nM
EC50 [5]: 0.31 nM
binding result [6]: no binding
EC50 [7]: < 2 nM
